Our source for the Receptor binding (hIRA) SPA, sup % relative to HI (% relative to HI) values is patent US11208452B2.

This assay concerns the target human insulin receptor IR-A (solubilised holoreceptor) (human) (UniProt P06213). The assay can be described thus: competition SPA: displacement of [125I-A14Y]-human insulin from solubilised human IR-A, relative to human insulin standard. For orientation: Displacement assays read how much labelled ligand stays bound in the presence of the test substance.

For “A14E, A21G(GAPQ)50, B25H, desB30 human insulin (from UniProt P01308) (ligand)”, the Receptor binding (hIRA) SPA, sup % relative to HI (% relative to HI) is 3.13.
For the substance “A14E, A21G(GEHP)50, B25H, desB30 human insulin (from UniProt P01308) (ligand)”, the Receptor binding (hIRA) SPA, sup % relative to HI (% relative to HI) was 3.1.
“A14E, A21G(GEPH)50, B25H, desB30 human insulin (from UniProt P01308) (ligand)” registered a Receptor binding (hIRA) SPA, sup % relative to HI (% relative to HI) of 3.3.
The value for “A14E, A21G(GQAP)50, B25H, desB30 human insulin (from UniProt P01308) (ligand)” was 3.15.
The value for “A14E, A21G(GQAP)75, B25H, desB30 human insulin (from UniProt P01308) (ligand)” was 2.41.
The value for “A14E, A21G(GQAP)150, B25H, desB30 human insulin (from UniProt P01308) (ligand)” was 2.1; that for “A14E, A21G(GQEP)50, B25H, desB30 human insulin (from UniProt P01308) (ligand)” was 3.
“A21G(GAQ)67, desB30 human insulin (from UniProt P01308) (ligand)” returned a Receptor binding (hIRA) SPA, sup % relative to HI (% relative to HI) of 6.99.
The result for “A21G(GAQP)50, desB30 human insulin (from UniProt P01308) (ligand)” reads 4.66.
For the substance “A21G(GEH)67, desB30 human insulin (from UniProt P01308) (ligand)”, the Receptor binding (hIRA) SPA, sup % relative to HI (% relative to HI) came out at 4.85.
The result for “A21G(GEPQ)50, desB30 human insulin (from UniProt P01308) (ligand)” reads 8.24.
The result for “A21G(GEQ)67, desB30 human insulin (from UniProt P01308) (ligand)” reads 8.48.
For the substance “A21G(GEQH)50, desB30 human insulin (from UniProt P01308) (ligand)”, the Receptor binding (hIRA) SPA, sup % relative to HI (% relative to HI) was 7.77.
Consider “A21G(GEQP)50, desB30 human insulin (from UniProt P01308) (ligand)”, for which the Receptor binding (hIRA) SPA, sup % relative to HI (% relative to HI) was 9.04.
On to “A21G(GHEP)50, desB30 human insulin (from UniProt P01308) (ligand)”, for which the Receptor binding (hIRA) SPA, sup % relative to HI (% relative to HI) was 4.67.
The value for “A21G(GHEQ)50, desB30 human insulin (from UniProt P01308) (ligand)” was 6.7; that for “A21G(GHPE)50, desB30 human insulin (from UniProt P01308) (ligand)” was 3.47.
The value for “A21G(GHQE)50, desB30 human insulin (from UniProt P01308) (ligand)” was 9.41.
Take “A21G(GPAQ)50, desB30 human insulin (from UniProt P01308) (ligand)”: the Receptor binding (hIRA) SPA, sup % relative to HI (% relative to HI) stood at 6.5.
“A21G(GPEH)50, desB30 human insulin (from UniProt P01308) (ligand)” registered a Receptor binding (hIRA) SPA, sup % relative to HI (% relative to HI) of 10.1.
As for “A21G(GPEQ)50, desB30 human insulin (from UniProt P01308) (ligand)”, the Receptor binding (hIRA) SPA, sup % relative to HI (% relative to HI) is 8.18.
The result for “A21G(GPHE)50, desB30 human insulin (from UniProt P01308) (ligand)” reads 7.85; that for “A21G(GPQA)50, desB30 human insulin (from UniProt P01308) (ligand)”, 5.05.
The value for “A21G(GPQE)50, desB30 human insulin (from UniProt P01308) (ligand)” was 6.53; that for “A21G(GQA)67, desB30 human insulin (from UniProt P01308) (ligand)” was 4.11.
The result for “A21G(GQAP)31, desB30 human insulin (from UniProt P01308) (ligand)” reads 4.55.
Regarding “A21G(GQAP)37, desB30 human insulin (from UniProt P01308) (ligand)”, the Receptor binding (hIRA) SPA, sup % relative to HI (% relative to HI) amounted to 5.33.
The result for “A21G(GQAP)44, desB30 human insulin (from UniProt P01308) (ligand)” reads 6.34; that for “A21G(GQAP)50, desB30 human insulin (from UniProt P01308) (ligand)”, 4.56; that for “A21G(GQAP)56, desB30 human insulin (from UniProt P01308) (ligand)”, 3.49.
With “A21G(GQAP)62, desB30 human insulin (from UniProt P01308) (ligand)”, the Receptor binding (hIRA) SPA, sup % relative to HI (% relative to HI) worked out at 4.45.
The value for “A21G(GQAP)69, desB30 human insulin (from UniProt P01308) (ligand)” was 4.2.
On to “A21G(GQAP)75, desB30 human insulin (from UniProt P01308) (ligand)”, for which the Receptor binding (hIRA) SPA, sup % relative to HI (% relative to HI) worked out at 4.19.
Substance “A21G(GQAP)100, desB30 human insulin (from UniProt P01308) (ligand)” returned a Receptor binding (hIRA) SPA, sup % relative to HI (% relative to HI) of 3.19.
The result for “A21G(GQAP)125, desB30 human insulin (from UniProt P01308) (ligand)” reads 2.65; that for “A21G(GQAP)150, desB30 human insulin (from UniProt P01308) (ligand)”, 2.87; that for “A21G(GQE)67, desB30 human insulin (from UniProt P01308) (ligand)”, 6.6.
In turn, “A21G(GQEH)50, desB30 human insulin (from UniProt P01308) (ligand)” came in with a Receptor binding (hIRA) SPA, sup % relative to HI (% relative to HI) of 5.99.
The result for “A21G(GQEPGQHP)25, desB30 human insulin (from UniProt P01308) (ligand)” reads 4.06; that for “A21G(GQHE)50, desB30 human insulin (from UniProt P01308) (ligand)”, 7.83.
Turning to “A21G(GQPA)50, desB30 human insulin (from UniProt P01308) (ligand)”, the Receptor binding (hIRA) SPA, sup % relative to HI (% relative to HI) is 4.26.
“A21G(GQPE)50, desB30 human insulin (from UniProt P01308) (ligand)” yielded a Receptor binding (hIRA) SPA, sup % relative to HI (% relative to HI) of 4.09.
“A21G, A22A, A23P, A24Q(GAPQ)49, desB30 human insulin (from UniProt P01308) (ligand)” showed a Receptor binding (hIRA) SPA, sup % relative to HI (% relative to HI) of 9.98.
Consider “A21G, A22A, A23Q, A24P(GAQP)37, desB30 human insulin (from UniProt P01308) (ligand)”, for which the Receptor binding (hIRA) SPA, sup % relative to HI (% relative to HI) is 5.71.
The value for “A21G, A22A, A23Q, A24P(GAQP)49, desB30 human insulin (from UniProt P01308) (ligand)” was 4.38; that for “A21G, A22A, A23Q, A24P(GAQP)62, desB30 human insulin (from UniProt P01308) (ligand)” was 3.89; that for “A21G, A22P, A23A, A24Q(GPAQ)49, desB30 human insulin (from UniProt P01308) (ligand)” was 5.7.
Substance “A21G, A22P, A23Q, A24A(GPQA)49, desB30 human insulin (from UniProt P01308) (ligand)” yielded a Receptor binding (hIRA) SPA, sup % relative to HI (% relative to HI) of 5.26.
The result for “A21G, A22Q, A23A, A24P(GQAP)49, desB30 human insulin (from UniProt P01308) (ligand)” reads 4.92; that for “A21G, A22Q, A23P(GQP)66, desB30 human insulin (from UniProt P01308) (ligand)”, 0.08.
As for “A21G, A22Q, A23P, A24A(GQPA)49, desB30 human insulin (from UniProt P01308) (ligand)”, the Receptor binding (hIRA) SPA, sup % relative to HI (% relative to HI) came out at 5.53.
Substance “A21G, B1F(GQAP)50, desB30 human insulin (from UniProt P01308) (ligand)” registered a Receptor binding (hIRA) SPA, sup % relative to HI (% relative to HI) of 8.38.
The result for “A21G, B1F(GQAP)100, desB30 human insulin (from UniProt P01308) (ligand)” reads 4.98.
Substance “A21Q(GAPQ)50, desB30 human insulin (from UniProt P01308) (ligand)” gave a Receptor binding (hIRA) SPA, sup % relative to HI (% relative to HI) of 7.52.
The value for “A21Q(GEHP)50, desB30 human insulin (from UniProt P01308) (ligand)” was 5.41.
The value for “A21Q(GEPH)50, desB30 human insulin (from UniProt P01308) (ligand)” was 5.09; that for “A21Q(GQAP)50, desB30 human insulin (from UniProt P01308) (ligand)” was 6.55.
“A21Q(GQEP)50, desB30 human insulin (from UniProt P01308) (ligand)” gave a Receptor binding (hIRA) SPA, sup % relative to HI (% relative to HI) of 8.54.
